Test results: patent US20260226160A1 (ISAR BIOSCIENCE, published 2026)
Residue numbers refer to the chain shown, from its start. One block for each binder: values may come before it.

Legend:
[1] = biological target: T1, human TREM2 (hTREM2) on cells (human, UniProt Q9NZC2 19-230); test: cell-based or functional assay
T1 sequence (looked up): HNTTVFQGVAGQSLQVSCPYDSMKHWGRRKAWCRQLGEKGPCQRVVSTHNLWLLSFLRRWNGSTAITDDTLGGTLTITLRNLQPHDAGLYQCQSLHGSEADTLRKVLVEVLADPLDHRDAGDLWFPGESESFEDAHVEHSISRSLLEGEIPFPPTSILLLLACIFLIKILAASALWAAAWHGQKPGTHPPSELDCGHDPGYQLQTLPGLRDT

[2] = biological target: T2, extracellular domain of human TREM2 (ecTREM2), Hölzel Diagnostika 11084-H08H (human, UniProt Q9NZC2 19-174); test: ELISA, coated ecTREM2
T2 construct: extracellular domain; also called human ecTREM2; ecTREM2 domain
T2 sequence (looked up): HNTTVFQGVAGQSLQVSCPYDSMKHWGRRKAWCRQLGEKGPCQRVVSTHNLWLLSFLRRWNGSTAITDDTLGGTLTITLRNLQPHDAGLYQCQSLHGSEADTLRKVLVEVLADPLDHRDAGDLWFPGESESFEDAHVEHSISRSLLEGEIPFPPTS
Description: (§1) Anti-TREM2 antibody binding to the extracellular domain of TREM2 (ecTREM2) or to the human or mouse peptide fragment of the stalk region of TREM2 were quantified in an ELISA assay. All procedures were performed at room temperature and incubations were done on a microtiter plate shaker. ELISA plate was coated with 60 μl/well (final concentration 0.5 μg/ml) of the according ligand (ecTREM2 (Hölzel Diagnostika, 11084-H08H) or human or mouse TREM2 peptide fragment) in coating buffer (NaHCO₃) for 1 h. The coated plate was washed three times with PBS-T (PBS, 0.1% Tween-20), blocked with 100 μl/well of blocking solution (PBS-T, 3% milk powder) for 1 h, and washed again. Antibodies were pre-diluted 1:10 in PBS and set to a concentration of 1 μg/ml. A dilution series was performed with dilution steps of 1:3 and 1:10. 50 μl/well of diluted AB were transferred to the blocked ELISA plate and incubated for 1 h. The plate was washed three times with PBS-T and incubated with anti-human-Strep-POD (Jackson Immunoresearch, #109-035-098) diluted in PBS-T 1:10000 for 1 h. After washing three times, bound POD was detected by incubation with 100 μl/well of TMB substrate (Thermo Scientific, #34029) until a maximal optical density (OD) of about 1 to 2 was reached. Finally, the colorimetric reaction was stopped with 100 μl/well stopping solution (1M H₂SO₄) and the OD determined at a wavelength of 450 nm with a reference wavelength of 595 nm in a plate reader (SpectraMax i3xl).
(§2) We determined the binding affinity of all antibody clones including M07 as well as of the control antibody H01 and negative control (not shown here), to ecTREM2 by an ELISA-based binding assay (FIG. 2).

[3] = biological target: T1, human TREM2 (hTREM2) on cells; test: cell-based or functional assay; remark: listed apart in the source
[4] = biological target: T1, human TREM2 (hTREM2) on cells; test: printed with the p-SYK titration curve of M07 on HEK293-Flp-In hTREM2/hDAP12 cells (FIG. 6B); how it was derived is not told
Description: Phosphorylated SYK (p-Syk) was measured using the AlphaLISA SureFire Ultra p-SYK Assay Kit (PerkinElmer, ALSU-PSYK-A-HV) following the manufacturer's instructions. Briefly, HEK293 cells overexpressing human TREM2 and human DAP12 were plated in 50 μl media at a density of 50,000 cells/well in a 96-well plate and incubated overnight at 37° C. in a cell culture incubator. The next day medium was removed and 50 μl of antibody diluted in medium was added to the cells. Following an incubation for 5 min at 37° C. treatment solutions were removed and cells were lysed with 50 μl lysis buffer supplemented with phosphatase inhibitor (VWR) for 10 min on a plate shaker (~350 rpm). 30 μl of lysate were then used for further incubation steps with acceptor and donor beads (each for 1 h) following analysis using a CLARIOstar^Plus Plate Reader (BMG Labtech).

[5] = biological target: T3, epitope peptide from the human TREM2 stalk region (DAGDLWFPG) (human); test: ELISA, coated epitope peptide SEQ ID NO: 16
T3 construct: also called human TREM2 peptide fragment
T3 peptide: DAGDLWFPG
Description: as §1

[6] = biological target: T2, extracellular domain of human TREM2 …; test: ELISA, coated ecTREM2 (0.5 µg/ml), antibody dilution series
Description: as §1, with “A dilution series was performed with dilution steps of 1:3 and 1:10. 50 μl/well of diluted AB were transferred to the blocked ELISA plate and incubated for 1 h. The plate was washed three times with PBS-T and incubated with anti-human-Strep-POD (Jackson Immunoresearch, #109-035-098) diluted in PBS-T 1:10000 for 1 h.” left out
as §2

[7] = biological target: T3, epitope peptide from the human TREM2 …; test: ELISA, coated epitope peptide (0.5 µg/ml), antibody dilution series
Description: as §1, with “The plate was washed three times with PBS-T and incubated with anti-human-Strep-POD (Jackson Immunoresearch, #109-035-098) diluted in PBS-T 1:10000 for 1 h.” left out

EC50 of p-SYK signaling titration in HEK293-Flp-In hTREM2/hDAP12 [1]: 4.39 nM | SYK phosphorylation, fold increase [1]: ≤ 60 fold | EC50 [2]: 0.204 nM | Mean values of fold increase over baseline (p-SYK AlphaLISA, 40 µg/ml antibody, HEK293-Flp-In hTREM2/hDAP12) [3]: 36.1 fold | Kd [4]: 2.19 nM | EC50 [5]: 0.335 nM
B1: antibody M07 (clone M07), fully human anti-hTREM2 IgG1-LALA-TFN (antibody, V domains shown)
VH: EVQLLESGGGLVQPGGSLRLTCAASGFTFSSYAMSWVRQAPGKGLEWVSVINGRGSNTYYADSVKGRFTITRDNSKNTLYLEMNSLRAEDTAVYYCARVRAYSGPSYGFDYWGQGTLVTVSS
VL: DIQLTQSPLSLSASAGDRVTITCRASQSIRDYLGWYQQKPGKAPKLLIYAASKLQSGVPSRFSGSGSGTDFTLTISSLQPEDFATYYCQQSYHTPPFTFGQGTKVEIKR
notes: leaders are cleaved off; also called anti-hTREM2 antibody M07; MO7

EC50 [2]: 0.19 nM | Mean values of fold increase over baseline (p-SYK AlphaLISA, 40 µg/ml antibody, HEK293-Flp-In hTREM2/hDAP12) [3]: 3.22 fold | EC50 [5]: 0.832 nM
B2: antibody H08 (clone H08), fully human IgG1-LALA (antibody, V domains shown)
VH: EVQLVQSGGGLVQPGGSLRLSCAASGFTFSSYAMSWVRQAPGKGLEWVSAISGSGGSTYYADSVKGRFTISRDNAKRSLYLQMNDLRVEDTAVYYCARTRTNVFDFWGQGTMVTVSS
VL: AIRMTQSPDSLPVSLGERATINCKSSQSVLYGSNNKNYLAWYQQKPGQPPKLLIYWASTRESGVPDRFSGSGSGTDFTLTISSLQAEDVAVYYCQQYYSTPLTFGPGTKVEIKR

EC50 [2]: 0.35 nM | Mean values of fold increase over baseline (p-SYK AlphaLISA, 40 µg/ml antibody, HEK293-Flp-In hTREM2/hDAP12) [3]: 9.39 fold | EC50 [5]: 0.329 nM
B3: antibody M03 (clone M03), fully human IgG1-LALA (antibody, V domains shown)
VH: EVQLVQSGGGLVQPGGSLRLSCAASGFTFSSYGITWVRQAPGKGLEWVSFISGGGSYTYYADSVKGRFTISRDNAKRTLYLQMNSLRAEDTAVYYCARSGRAYFDYWGQGTLVTVSS
VL: DIRLTQPPSVSGAPGQRVTISCSGSSSNIGSLFVSWYQQLPGTAPKLLIYSNSQHPSGVPDRFSGSKSGTSASLAITGLQAEDEADYYCSAYDQFSNSVVFGGGTKLTVLG

binding result [6]: no binding | binding result [7]: no binding | Mean values of fold increase over baseline (p-SYK AlphaLISA, 40 µg/ml antibody, HEK293-Flp-In hTREM2/hDAP12) [3]: 1.07 fold
B4: antibody M05 (clone M05), fully human IgG1-LALA (antibody, V domains shown)
VH: EVQLLESGGGLVQPGGSLRLSCAASGFTFSSNAMTWVRQAPGKGLEWVSVIGSSGSYTYYADSVKGRFTISRDNSKNTLYLQMNSLRAEDTAVYYCARSGTTGFDYWGQGTLVTVSS
VL: B3 VL with R3V, L4M, G12V, A13T, S23R, G24S, G111R
